Test results: the RNAGym collection of RNA variant scans (doi:10.7554/elife.80360)

B1: CPEB3 Ribozyme (parent)
chain: GGGGGCCACAGCAGAAGCGUUCACGUCGCGGCCCCUGUCAGAUUCUGGUGAAUCUGCGAAUUCUGCUGU

Variants of: B1
Experiment: self-cleavage, relative activity (ratio to wild type); higher = more cleavage; co-transcriptional

| Variant | self-cleavage |
| --- | --- |
| GUGGGCCACAGCAGAAGCGUUCACGUCGCGGCCCCUGUCAGAUUCUGGUGAAUCUGCGAAUUCUACUGU [G2U G65A] | 0.0788 |
| GUGGGCCACAGCAGAAGCGUCCACGUCGCGGCCCCUGUCAGAUUCUGGUGAAUCUGCGAAUUCUGCUGU [G2U U21C] | 0.0789 |
| GUGGGCCACAGCAGAAGCGUUCACGUCGCGGCCCCUGUCAGAUUCUGGUGAAUCUGCGAAUUCUGUUGU [G2U C66U] | 0.096 |
| GUGGGCCACAGCAGAAGCGUUCACGUCGCGGCCCCUGUCAGAUUCUGGUGAAUCUGCGAAUUCUGAUGU [G2U C66A] | 0.073 |
| GCGGGCCACAGCAGAAGCGUUCACGUCGCGGCCCCUGUCAGAUUCUGGUGAAUCUGCGAAUUCUGCUGG [G2C U69G] | 0.0519 |
| GUGGGCCACAGCAGAAGCGUUCACGUCGUGGCCCCUGUCAGAUUCUGGUGAAUCUGCGAAUUCUGCUGU [G2U C29U] | 0.0589 |
| GUGGGCCACAGCAGAAGCGUUCACGUCGCGGCCCCUGUCAGAUUCUGGCGAAUCUGCGAAUUCUGCUGU [G2U U49C] | 0.0667 |
| GUGGGCCACAGCAGAAGCGUUCACGUCGCGGCCCCUGUCAGAUUCUGGAGAAUCUGCGAAUUCUGCUGU [G2U U49A] | 0.0944 |
| GUGGGCCACAGCAGAAGCGUUCACGUCGCGGCCCCUGUCAGAUUCUGGGGAAUCUGCGAAUUCUGCUGU [G2U U49G] | 0.0431 |
| GUGGGCCACAGCAGAAGCGUUCACGUCGCGGCCCCUGUCAGAUUCUGCUGAAUCUGCGAAUUCUGCUGU [G2U G48C] | 0.0769 |
| GUGGGCCACAGCAGAAGCGUUCACGUCGCGGCCCCUGUCAGAUUCUGGUGAAUCUGCGAGUUCUGCUGU [G2U A60G] | 0.0636 |
| GUGGGCCACAGCAGAAGCGUUCACGUCGCGGACCCUGUCAGAUUCUGGUGAAUCUGCGAAUUCUGCUGU [G2U C32A] | 0.107 |
| GGAGGCCACAGCAGAAGCGUUCACGUCGCGGCCCCUGUCAGAUUCUGGUGGAUCUGCGAAUUCUGCUGU [G3A A51G] | 0.584 |
| GUGGGCCACAGCAGAAGCGUUCACGUCGCGGCCCGUGUCAGAUUCUGGUGAAUCUGCGAAUUCUGCUGU [G2U C35G] | 0.109 |
| GUGGGCCACAGCAGAAGCGUUCACGUCGCGGCCCUUGUCAGAUUCUGGUGAAUCUGCGAAUUCUGCUGU [G2U C35U] | 0.0749 |
| GUGGGCCACAGCAGAAGCGUUCACGUCGCGGCCCCGGUCAGAUUCUGGUGAAUCUGCGAAUUCUGCUGU [G2U U36G] | 0.0492 |
| GUGAGCCACAGCAGAAGCGUUCACGUCGCGGCCCCUGUCAGAUUCUGGUGAAUCUGCGAAUUCUGCUGU [G2U G4A] | 0.0959 |
| GUGGGCCACAGCAGAAGCGUUCACGUCGCGGCCCCUGUCAGAUUCUGGUGAAUCUGCGGAUUCUGCUGU [G2U A59G] | 0.0714 |
| GUGGGCCACAGCAGAAGCGUUCACGUCGCGGCCCCUGCCAGAUUCUGGUGAAUCUGCGAAUUCUGCUGU [G2U U38C] | 0.095 |
| GUGGGCCACAGCAGAAGCGUUCACGUCGCGGCCCCUGACAGAUUCUGGUGAAUCUGCGAAUUCUGCUGU [G2U U38A] | 0.0631 |

| Variant | self-cleavage |
| --- | --- |
| GUGGGCCACAGCAGAAGCGUUCACGUCGCGGCCCCUGUCAGAUUCUGGUGCAUCUGCGAAUUCUGCUGU [G2U A51C] | 0.102 |
| GUGGGCCACACCAGAAGCGUUCACGUCGCGGCCCCUGUCAGAUUCUGGUGAAUCUGCGAAUUCUGCUGU [G2U G11C] | 0.0923 |
| GUGGGCCACAGCAGAAGCGUUCACGUCGCGGCCCCUGUCAGAUUCGGGUGAAUCUGCGAAUUCUGCUGU [G2U U46G] | 0.0727 |
| GUGGGCCACAGCAGAAGCGUUCACGUCGCGGCCCCUGUCAGAUUCUGGUAAAUCUGCGAAUUCUGCUGU [G2U G50A] | 0.0766 |
| GUGGGCCACAGCAGAAGCGAUCACGUCGCGGCCCCUGUCAGAUUCUGGUGAAUCUGCGAAUUCUGCUGU [G2U U20A] | 0.0261 |
| GUGGGCCACAGCAGAAGCGUUCACGUCGCAGCCCCUGUCAGAUUCUGGUGAAUCUGCGAAUUCUGCUGU [G2U G30A] | 0.0872 |
| GUGGGCCACAGCAGAAGCGUUCACGUCGCCGCCCCUGUCAGAUUCUGGUGAAUCUGCGAAUUCUGCUGU [G2U G30C] | 0.0703 |
| GUGGGCCAUAGCAGAAGCGUUCACGUCGCGGCCCCUGUCAGAUUCUGGUGAAUCUGCGAAUUCUGCUGU [G2U C9U] | 0.176 |
| GUGGGCCACAGCGGAAGCGUUCACGUCGCGGCCCCUGUCAGAUUCUGGUGAAUCUGCGAAUUCUGCUGU [G2U A13G] | 0.0748 |
| GUGGGCCACAGCAGAAGCGUUCACGUCGCGGCCCCUGUCAGAUUCUGGUGAAUAUGCGAAUUCUGCUGU [G2U C54A] | 0.0587 |
| GUGGGCCACAGCAGAAGCGUUCACGUCGCGGCCCCUGUCAGAUUCUGGUGAAUCUGUGAAUUCUGCUGU [G2U C57U] | 0.0179 |
| GGAGGCCACAGCAGAGGCGUUCACGUCGCGGCCCCUGUCAGAUUCUGGUGAAUCUGCGAAUUCUGCUGU [G3A A16G] | 0.315 |
| GUGGGCCACAGCAGAAGCGUUCACGUCGCGGCCCCUGUCAGAUUCUGGUGAAUCUGCGAAUACUGCUGU [G2U U62A] | 0.0777 |
| GUGGGCCACAGCAGAAGCGUUCACGUCGCGGCCCCUGUCAGAUUCUGGUGAAUCUGCGAAUCCUGCUGU [G2U U62C] | 0.108 |
| GUGGGCCACAGCAGAAGCGUUCACGUAGCGGCCCCUGUCAGAUUCUGGUGAAUCUGCGAAUUCUGCUGU [G2U C27A] | 0.0514 |
| GUGGGCCACAGCAGAAGCGUUCACGUCGCGGCCCCUGUCAGAUUCUGGUGAAUCUGCGAAUUCCGCUGU [G2U U64C] | 0.0967 |
| GUGGGCCACAGCAGAAGCGUUCACGUCGCGGCCCCUGUCAGAUUCUGGUGAAUCUGCGAAUUCGGCUGU [G2U U64G] | 0.0605 |
| GGAGGCCCCAGCAGAAGCGUUCACGUCGCGGCCCCUGUCAGAUUCUGGUGAAUCUGCGAAUUCUGCUGU [G3A A8C] | 0.721 |
| GGAGGCCGCAGCAGAAGCGUUCACGUCGCGGCCCCUGUCAGAUUCUGGUGAAUCUGCGAAUUCUGCUGU [G3A A8G] | 0.527 |
